Results from US20090149339A1 (published 2009).
Ends that are not written are not given here. * marks the point of attachment. Biotin = O=C1N[C@H]2[C@H](CS[C@H]2CCCCC(=O)*)N1

How the values were obtained:
[1] = target: T1, GST-LIM PDZ domain fusion protein (Human LIM protein AA29-112; PDZ domain 1 of 1) (human, UniProt P08515 1-218 = GST); test: A assay
[2] = target: T2, GST-AF6 PDZ domain fusion protein (af-6 protein AA985-1077; PDZ domain 1 of 1) (UniProt P08515 1-218 = GST); test: A assay
[3] = target: T3, GST-41.8 kD PDZ domain fusion protein (hypothetical 41.8 kD protein AA4-85; PDZ domain 1 of 1) (UniProt P08515 1-218 = GST); test: A assay
T3 construct: also called hypoth
T3 sequence (P08515 1-218, tags or fused parts left off): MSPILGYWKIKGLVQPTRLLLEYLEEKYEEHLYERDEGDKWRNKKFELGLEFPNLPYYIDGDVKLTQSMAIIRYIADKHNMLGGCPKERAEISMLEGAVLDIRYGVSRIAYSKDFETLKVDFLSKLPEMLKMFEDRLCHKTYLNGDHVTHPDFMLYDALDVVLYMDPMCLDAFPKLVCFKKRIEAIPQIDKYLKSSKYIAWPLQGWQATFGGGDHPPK

[4] = target: T4, GST-MPP1 PDZ domain fusion protein (55 Kd erythrocyte membrane protein AA101-186; PDZ domain 1 of 1) (UniProt P08515 1-218 = GST); test: A assay
T4 sequence (P08515 1-218, tags or fused parts left off): as above

[5] = target: T5, GST-RGS12 PDZ domain fusion protein (human regulator of G-protein signalling 12 AA35-103; PDZ domain 1 of 1) (human, UniProt P08515 1-218 = GST); test: A assay
T5 construct: also called RSG12

[6] = target: T6, GST-NeDLG PDZ domain fusion protein (presynaptic protein sao102, neuroendocrine-dlg; PDZ domains 1-2 of 3) (UniProt P08515 1-218 = GST); test: A assay
T6 construct: also called NeDLG1
T6 sequence (P08515 1-218, tags or fused parts left off): as above

[7] = target: T7, GST-MPP2 PDZ domain fusion protein (maguk p55 subfamily member 2 (DLG2) AA185-273; PDZ domain 1 of 1) (UniProt P08515 1-218 = GST); test: G assay
T7 construct: also called MMP2
T7 sequence (P08515 1-218, tags or fused parts left off): as above

[8] = target: T8, GST-CASK PDZ domain fusion protein (CASK AA495-584; PDZ domain 1 of 1) (mouse, UniProt P08515 1-218 = GST); test: A/G assays
T8 construct: also called mCASK
T8 sequence (P08515 1-218, tags or fused parts left off): as above

[9] = target: GST-LIMK2 PDZ domain fusion protein (human LIM domain kinase 2 AA185-275; PDZ domain 1 of 1) (human, UniProt P08515 1-218 = GST); test: A/G assays
Sequence of GST-LIMK2 PDZ domain fusion protein (human LIM domain kinase 2 AA185-275; PDZ domain 1 of 1) (P08515 1-218, tags or fused parts left off): as above

[10] = target: GST-NOS1 PDZ domain fusion protein (human neuronal nitric oxide synthase; PDZ domain 1 of 1) (human, UniProt P08515 1-218 = GST); test: A/G assays
[11] = target: GST-PTN-4 PDZ domain fusion protein (protein-tyrosine phosphatase meg1 AA774-862; PDZ domain 1 of 1) (UniProt P08515 1-218 = GST); test: A/G assays
Sequence of GST-PTN-4 PDZ domain fusion protein (protein-tyrosine phosphatase meg1 AA774-862; PDZ domain 1 of 1) (P08515 1-218, tags or fused parts left off): as above

[12] = target: T9, GST-prIL16 PDZ domain fusion protein (putative interleukin 16 precursor AA170-383; PDZ domains 1-2 of 2) (UniProt P08515 1-218 = GST); test: A/G assays
[13] = target: T10, GST-KIAA0559 PDZ domain fusion protein (KIAA0559 AA766-870; PDZ1 of 1) (UniProt P08515 1-218 = GST); test: A/G assays
T10 construct: also called K559
T10 sequence (P08515 1-218, tags or fused parts left off): as above

[14] = target: T11, GST-KIAA0316 PDZ domain fusion protein (KIAA0316 AA197-284; PDZ domain 1 of 1) (UniProt P08515 1-218 = GST); test: A/G assays
T11 construct: also called K316
T11 sequence (P08515 1-218, tags or fused parts left off): as above

[15] = target: GST-DVL1 PDZ domain fusion protein (human dishevelled segment polarity protein homolog AA248-340); PDZ domain … (human, UniProt P08515 1-218 = GST); test: A/G assays
Sequence of GST-DVL1 PDZ domain fusion protein (human dishevelled segment polarity protein homolog AA248-340); PDZ domain … (P08515 1-218, tags or fused parts left off): as above

[16] = target: T12, GST-TAX40 PDZ domain fusion protein (human tax interaction protein 40 AA35-137; PDZ domain 1 of 1) (human, UniProt P08515 1-218 = GST); test: A/G assays
T12 construct: also called TX 40
T12 sequence (P08515 1-218, tags or fused parts left off): as above

[17] = target: GST-TIAM1 PDZ domain fusion protein (T-lymphoma invasion and metastasis inducing protein 1 AA1001-1088); PDZ 1 … (UniProt P08515 1-218 = GST); test: A/G assays
Sequence of GST-TIAM1 PDZ domain fusion protein (T-lymphoma invasion and metastasis inducing protein 1 AA1001-1088); PDZ 1 … (P08515 1-218, tags or fused parts left off): as above

[18] = target: T13, GST-KIAA0303 PDZ domain fusion protein (KIAA0303 AA652-742; PDZ domain 1 of 1) (UniProt P08515 1-218 = GST); test: A/G assays
T13 construct: also called K303
T13 sequence (P08515 1-218, tags or fused parts left off): as above

[19] = target: T14, GST-CBP PDZ domain fusion protein (Cytohesin binding protein HE AA85-175; PDZ domain 1 of 1) (UniProt P08515 1-218 = GST); test: A/G assays
T14 construct: also called Prot
T14 sequence (P08515 1-218, tags or fused parts left off): as above

[20] = target: GST-MINT3 PDZ domain fusion protein (human MINT3 AA11-52; PDZ domain 1 of 1) (human, UniProt P08515 1-218 = GST); test: A/G assays
Sequence of GST-MINT3 PDZ domain fusion protein (human MINT3 AA11-52; PDZ domain 1 of 1) (P08515 1-218, tags or fused parts left off): as above

[21] = target: T15, GST-TAX2 PDZ domain fusion protein (human tax interaction protein 2 AA54-140; PDZ domain 1 of 1) (human, UniProt P08515 1-218 = GST); test: A/G assays
T15 construct: also called TX 2
T15 sequence (P08515 1-218, tags or fused parts left off): as above

[22] = target: T16, GST-TAX33 PDZ domain fusion protein (tax interaction protein 33 AA73-162; PDZ domain 1 of 1) (UniProt P08515 1-218 = GST); test: A/G assays
T16 construct: also called TX33
T16 sequence (P08515 1-218, tags or fused parts left off): as above

[23] = target: T17, GST-SYN1a PDZ domain fusion protein (alpha1-syntrophin AA96-189; PDZ domain 1 of 1) (UniProt P08515 1-218 = GST); test: A/G assays
T17 construct: also called SYN 1 alpha; SYNTR 1 alpha
T17 sequence (P08515 1-218, tags or fused parts left off): as above

[24] = target: T18, GST-TAX43 PDZ domain fusion protein (human tax interaction protein 43 AA15-85; PDZ domain 1 of 1) (human, UniProt P08515 1-218 = GST); test: A/G assays
T18 construct: also called TX 43
T18 sequence (P08515 1-218, tags or fused parts left off): as above

[25] = target: T19, GST-PSD95 PDZ domain fusion protein (human post-synaptic density protein 95 AA387-724; PDZ domains 1-3 of 3) (human, UniProt P08515 1-218 = GST); test: A and G assays
[26] = target: T9, GST-prIL16 PDZ domain fusion protein …; test: G assay
[27] = target: T4, GST-MPP1 PDZ domain fusion protein (55 …); test: G assay
[28] = target: T1, GST-LIM PDZ domain fusion protein …; test: A/G assays
[29] = target: T7, GST-MPP2 PDZ domain fusion protein …; test: A/G assays
[30] = target: T2, GST-AF6 PDZ domain fusion protein (af-6 …); test: A/G assays
[31] = target: T3, GST-41.8 kD PDZ domain fusion protein …; test: A/G assays
[32] = target: T5, GST-RGS12 PDZ domain fusion protein …; test: A/G assays
[33] = target: T19, GST-PSD95 PDZ domain fusion protein …; test: A/G assays
[34] = target: T6, GST-NeDLG PDZ domain fusion protein …; test: A/G assays

T1 sequence (P08515 1-218, tags or fused parts left off): as above
T2 sequence (P08515 1-218, tags or fused parts left off): as above

Binder	binding result [8]	binding result [9]	binding result [10]	binding result [11]	binding result [13]	binding result [14]	binding result [15]	binding result [16]	binding result [17]	binding result [18]	binding result [19]	binding result [20]	binding result [21]	binding result [22]	binding result [23]	binding result [24]	other results
Biotin-TREDIYVNYPTFSRRPKTRV [DNAM-1 C-terminal PL peptide AA22L, biotinylated]	no binding	no binding	no binding	no binding	no binding	no binding	no binding	no binding	no binding	no binding	no binding	no binding	no binding	no binding	no binding	no binding	binding result [1]: binds; binding result [2]: binds; binding result [3]: binds; binding result [4]: binds; binding result [5]: binds; binding result [6]: binds; binding result [7]: binds; binding result [12]: no binding; binding result [25]: binds
Biotin-QFMTADETRNLQNVDMKIGV [CD44 (long form) C-terminal PL peptide AA9L, biotinylated]	no binding	no binding	no binding	no binding	no binding	no binding	no binding	no binding	no binding	no binding	no binding	no binding	no binding	no binding	no binding	no binding	binding result [26]: binds; binding result [27]: binds; binding result [28]: no binding; binding result [29]: no binding; binding result [30]: no binding; binding result [31]: no binding; binding result [32]: no binding; binding result [33]: no binding; binding result [34]: no binding
